The values below come from patent US20190367961A1, “MOGROL GLYCOSYLTRANSFERASE AND GENE ENCODING SAME” (SUNTORY HOLDINGS LIMITED, priority 2014, published 2019).

A short description of the series: glucose transfer (glycosylation) activity for mogrol, product analysed by LC-IT-TOF-MS. In kind it is biochemical. The following applies: same enzyme conditions (0.2 mM mogrol, 2 mM UDP-glucose, 30° C., 3 hours). How it is done:
Purification was carried out using the HisTag of the recombinant protein according to an ordinary method, and glucose transfer activity for mogrol prepared by hydrolyzing a Siraitia grosvenorii extract (Takemoto, T. et al. (1983) YAKUGAKU ZASSHI 103(11), 1167-1173) was evaluated. The enzyme reaction composition was 0.2 mM mogrol as a glucose acceptor, 2 mM UDP-glucose as a glucose donor, and 50 mM calcium phosphate buffer (pH 7.5); an enzyme solution was added thereto, which was then reacted at 30° C. for 3 hours; and the product was analyzed using LC-IT-TOF-MS (Shimadzu Corporation).
Stevia-derived UGT85C2 and UGT73E1 were expressed in the same manner as in the above method. The product amount was measured under the above enzyme conditions to determine relative activity by dividing it by the expressed protein amount. As a result, the relative activities of stevia-derived UGT85C2 and UGT73E1 when the activity of SgUGT74-943 was set to 1 were 0.35 and 0.22, respectively. The glycosylation activity of Siraitia grosvenorii-derived SgUGT74-943 was confirmed to be nearly 3 times higher than those of stevia-derived UGT85C2 and UGT73E1 (FIG. 4).

B1: UGT73E1: steviol glycosyltransferase derived from stevia, known to glycosylate mogrol (protein, UniProt Q6VAA9 1-495, looked up)
UDP-glycosyltransferase 73E1: MSPKMVAPPTNLHFVLFPLMAQGHLVPMVDIARILAQRGATVTIITTPYHANRVRPVISRAIATNLKIQLLELQLRSTEAGLPEGCESFDQLPSFEYWKNISTAIDLLQQPAEDLLRELSPPPDCIISDFLFPWTTDVARRLNIPRLVFNGPGCFYLLCIHVAITSNILGENEPVSSNTERVVLPGLPDRIEVTKLQIVGSSRPANVDEMGSWLRAVEAEKASFGIVVNTFEELEPEYVEEYKTVKDKKMWCIGPVSLCNKTGPDLAERGNKAAITEHNCLKWLDERKLGSVLYVCLGSLARISAAQAIELGLGLESINRPFIWCVRNETDELKTWFLDGFEERVRDRGLIVHGWAPQVLILSHPTIGGFLTHCGWNSTIESITAGVPMITWPFFADQFLNEAFIVEVLKIGVRIGVERACLFGEEDKVGVLVKKEDVKKAVECLMDEDEDGDQRRKRVIELAKMAKIAMAEGGSSYENVSSLIRDVTETVRAPH
On to B1, for which the “relative activity (product amount divided by expressed protein amount) when the activity of SgUGT74-943 was set to 1” value is reported as 0.22.

B2: UGT85C2: steviol glycosyltransferase derived from stevia, known to glycosylate mogrol (protein, UniProt Q6VAB0 1-481, looked up)
UDP-glycosyltransferase 85C2: MDAMATTEKKPHVIFIPFPAQSHIKAMLKLAQLLHHKGLQITFVNTDFIHNQFLESSGPHCLDGAPGFRFETIPDGVSHSPEASIPIRESLLRSIETNFLDRFIDLVTKLPDPPTCIISDGFLSVFTIDAAKKLGIPVMMYWTLAACGFMGFYHIHSLIEKGFAPLKDASYLTNGYLDTVIDWVPGMEGIRLKDFPLDWSTDLNDKVLMFTTEAPQRSHKVSHHIFHTFDELEPSIIKTLSLRYNHIYTIGPLQLLLDQIPEEKKQTGITSLHGYSLVKEEPECFQWLQSKEPNSVVYVNFGSTTVMSLEDMTEFGWGLANSNHYFLWIIRSNLVIGENAVLPPELEEHIKKRGFIASWCSQEKVLKHPSVGGFLTHCGWGSTIESLSAGVPMICWPYSWDQLTNCRYICKEWEVGLEMGTKVKRDEVKRLVQELMGEGGHKMRNKAKDWKEKARIAIAPNGSSSLNIDKMVKEITVLARN
Take B2: the “relative activity (product amount divided by expressed protein amount) when the activity of SgUGT74-943 was set to 1” value turned out to be 0.35.
